Experimental data published in patent US20240084003A1 (SIMCERE ZAIMING PHARMACEUTICAL, published 2024).

How the values were obtained:
[1] = biological target: T1, human CD22-ECD-His protein (human, UniProt P20273 20-687); assay: ELISA, Ab 10.00 nM
T1 construct: Made in house in HEK293E; also called hCD22-ECD-His; recombinant human CD22-ECD His protein; not shown: His tag
T1 sequence: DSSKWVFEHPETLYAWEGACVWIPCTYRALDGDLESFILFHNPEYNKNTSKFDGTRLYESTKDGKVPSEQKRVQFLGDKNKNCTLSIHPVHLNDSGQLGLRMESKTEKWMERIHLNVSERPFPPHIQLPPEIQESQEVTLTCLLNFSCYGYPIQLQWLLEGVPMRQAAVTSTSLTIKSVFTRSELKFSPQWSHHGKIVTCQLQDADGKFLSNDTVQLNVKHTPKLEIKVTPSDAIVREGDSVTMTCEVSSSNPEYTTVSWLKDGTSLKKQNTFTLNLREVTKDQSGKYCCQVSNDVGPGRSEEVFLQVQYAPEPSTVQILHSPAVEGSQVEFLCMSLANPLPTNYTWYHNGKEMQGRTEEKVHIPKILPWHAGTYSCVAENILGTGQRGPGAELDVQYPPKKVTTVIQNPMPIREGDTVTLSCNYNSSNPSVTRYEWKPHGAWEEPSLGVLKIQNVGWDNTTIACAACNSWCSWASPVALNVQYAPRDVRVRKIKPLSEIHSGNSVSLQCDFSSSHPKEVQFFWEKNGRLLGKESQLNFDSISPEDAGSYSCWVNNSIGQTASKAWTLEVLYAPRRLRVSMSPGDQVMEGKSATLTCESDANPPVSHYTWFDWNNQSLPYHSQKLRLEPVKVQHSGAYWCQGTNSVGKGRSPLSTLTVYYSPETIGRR
Method in brief: (§1)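 TMB colour read-out, stopped with 1.0 N HCl after 30 min at room temperature, measures binding of CD22 human-murine chimeric antibodies to plate-coated CD22-ECD-His (2 μg/mL, overnight 4 °C). Antibody and HRP secondary steps each ran 2 h at 37 °C.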

human CD22 domain5-7-His = biological target: T2, human CD22 domain5-7-His (human, UniProt P20273 414-687); assay: ELISA, human CD22 domain5-7-His coated
T2 construct: also called hCD22 domain5-7-His; not shown: His tag
T2 sequence: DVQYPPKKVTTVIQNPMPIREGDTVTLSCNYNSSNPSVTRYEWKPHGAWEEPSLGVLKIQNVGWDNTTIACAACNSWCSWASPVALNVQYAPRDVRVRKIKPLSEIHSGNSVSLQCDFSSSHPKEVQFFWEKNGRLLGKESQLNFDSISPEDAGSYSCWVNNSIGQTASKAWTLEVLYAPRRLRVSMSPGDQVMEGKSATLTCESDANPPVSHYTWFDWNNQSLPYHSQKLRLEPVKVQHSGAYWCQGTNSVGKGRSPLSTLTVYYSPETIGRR

[2] = biological target: T1, human CD22-ECD-His protein; assay: ELISA, Ab 0.00001 nM
Method in brief: as §1

[3] = biological target: T1, human CD22-ECD-His protein; assay: ELISA, Ab 0.0001 nM
Method in brief: as §1

[4] = biological target: T3, monkey CD22 protein (ACROBiosystems, SI2-R52Ha) (monkey (rhesus monkey in paragraph 148), UniProt H9G1X2 18-686); assay: ELISA, monkey CD22-ECD-His coated
T3 construct: extracellular domain; also called monkey CD22-ECD; monkey CD22-ECD-His
T3 sequence: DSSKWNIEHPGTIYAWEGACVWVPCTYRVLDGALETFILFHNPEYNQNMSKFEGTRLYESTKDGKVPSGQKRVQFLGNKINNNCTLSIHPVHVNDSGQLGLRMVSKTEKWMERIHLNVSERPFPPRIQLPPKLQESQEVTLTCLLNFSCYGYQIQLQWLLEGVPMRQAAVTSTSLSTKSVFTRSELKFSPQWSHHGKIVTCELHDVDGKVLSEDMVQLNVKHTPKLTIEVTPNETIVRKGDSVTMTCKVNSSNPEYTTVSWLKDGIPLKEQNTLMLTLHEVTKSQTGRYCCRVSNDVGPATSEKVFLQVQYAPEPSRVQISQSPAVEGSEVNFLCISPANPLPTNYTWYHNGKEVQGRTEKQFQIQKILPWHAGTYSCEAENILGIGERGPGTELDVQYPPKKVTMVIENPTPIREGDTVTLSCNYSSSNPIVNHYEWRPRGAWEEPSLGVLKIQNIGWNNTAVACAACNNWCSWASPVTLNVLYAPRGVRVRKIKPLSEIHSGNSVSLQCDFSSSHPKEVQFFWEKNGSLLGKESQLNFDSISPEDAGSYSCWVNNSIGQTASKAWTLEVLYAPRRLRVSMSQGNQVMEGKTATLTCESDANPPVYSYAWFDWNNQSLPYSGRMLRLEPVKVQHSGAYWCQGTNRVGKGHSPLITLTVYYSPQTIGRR
Method in brief: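 Direct ELISA: chimeric antibody binding to CD22 coated at 2 μg/mL, with a 37° C, 2 h antibody step and HRP/TMB detection.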

B1: F2.205.9 (antibody, human IgG1, lambda, V domains shown)
VH: QVTLKESGPGILQPSQTLSLTCSFSGFSLSTSGMGVGWIRQPSGKGLEWLAHIWWDDDEYYNPALKSRLTISKDTSKNQVFLKIANVDTADTATYYCARISIPYGYYDWFFDVWGTGTTVTVSA
VL: QAVVTQESALTTSPGETVTLTCRSSTGAVTTRNYANWVQEKPDHLFTGLIGGTNNRAPGVPARFSGSLIGDKAALTITGAQTEDEAIYFCALWYSNHFIFGSGTKVTVLG
notes: Human-murine chimeric IgG1, lambda
OD450 [1]: 2.11 OD450
binding result (human CD22 domain5-7-His): no binding (tested: 100 nM)
OD450 [2]: 0.19 OD450
OD450 [3]: 0.24 OD450
EC50 (read off the curve) [4]: ~30 pM

B2: F2.55.1 (antibody, human IgG1, lambda, V domains shown)
VH: QVTLKESGPGILQPSQTLSLTCSFSGFSLSTFPLGVGWIRQPSGKGLEWLAHVWWNDDDYYNPALKSRLTISKDTSNTRVFLSVASVDTAETATYYCARLNWDRWYFDVWGTGTTVTVSS
VL: QLVLTQSSSASFSLGASAKLTCTLSSQHSAYTVEWYQQQPLKPPKYVMELKKDGSHSTGDGIPDRFSGSSSGADRYLSISNIQPEDEAIYICGVGDTVKEQFVFGGGTKVTVLG
notes: as for B1
OD450 [1]: 2.16 OD450
binding result (human CD22 domain5-7-His): no binding (tested: 100 nM)
OD450 [2]: 0.16 OD450
OD450 [3]: 0.23 OD450
EC50 (read off the curve) [4]: ~100 pM

B3: F1.245.2 (antibody, human IgG1, kappa, V domains shown)
VH: EVQLQQSGAELVKPGASVKLSCTGSGFNIKDYYIHWVKQRTEQGLEWMGRIDPEDGETEYAPKFQDEATITSDTSSNTAYLQLSSLTYEDTAVYYCAREAAGYFYRGSSYGYFDVWGTGTTVTVSS
VL: DFQMTQTTSFLSASLGDRVTISCSASQDISNYLNWYQQKPDGTVKLLIYYTSSLHSGVPSRFSGSGSGTDYSLTISNLEPEDIATYYCQQYSMLPYTFGGGTKLEMER
notes: Human-murine chimeric IgG1, kappa
OD450 [1]: 2.54 OD450
binding result (human CD22 domain5-7-His): no binding (tested: 100 nM)
OD450 [2]: 0.22 OD450
OD450 [3]: 0.44 OD450
binding result [4]: no binding (tested: 100 nM)

B4: F2.70.2 (antibody, human IgG1, lambda, V domains shown)
VH: EVQLVESGGGLVKPGGSLKLSCAASGFTFSDYGMNWFRQAPEKGLEWVAYISRGSHTIYYADTVKGRFTISRDNAKNTLFLQMTSLRSNDTAMYYCVRMAGYYAMDYWGQGTSVTVSS
VL: QLVLTQSSSASFSLGASAKLTCTLSSQHSSYIIEWYQQQPLKPPKYVMELKKDGSHSTGDGIPDRFSGSSSGADRYLSISNIQPEDEAIYICGVGDTIKEQFVYVFGGGTKVTVLG
notes: as for B1
OD450 [1]: 2.03 OD450
binding result (human CD22 domain5-7-His): no binding (tested: 100 nM)
OD450 [2]: 0.09 OD450
OD450 [3]: 0.18 OD450
binding result [4]: no binding (tested: 100 nM)

B5: F2.104.10 (antibody, human IgG1, lambda, V domains shown)
VH: EVQLVESGGGFVKPGGSLKLSCAASGFTFSDYGMNWFRQAPEKGLEWVAYISRGSHTIYYADTVKGRFTISRDNAENTLFLQMTSLRSNDTAMYYCVRMAGYYAMDYWGQGTSLTVSS
VL: QLVLTQSSSASFSLGASAKLTCTLSSQHSSYIIEWYQQQPLKPPKYVMEVKKDGSHSTGDGIPDRFSGSSSGADRYLSISNIQSEDEAIYICGVGDTIKEQFVYVFGGGTKVTVLG
notes: as for B1
OD450 [1]: 2 OD450
binding result (human CD22 domain5-7-His): no binding (tested: 100 nM)
OD450 [2]: 0.22 OD450
OD450 [3]: 0.32 OD450
binding result [4]: no binding (tested: 100 nM)

B6: F2.343.16 (antibody, human IgG1, lambda, V domains shown)
VH: QVQLKQSGPGLVQPSQSLSITCTVSGFSLTGYGVQWVRQSPGKGLEWLGVIWGGGGTDYNAAFISRLNIIKDNSKSQVFFKMNSLQADDTAIYYCARYSKYGHFDVWGTGTAVTVSS
VL: QAVVTQESALTTSPGETVTLTCRSSTGAVTTSNYANWVQEKPDHLFTGLIGGTYNRVPGVPARFSGSLIGDKAALTITGAQTEDEAIYFCALWYSNHFWVFGGGTKLTVLG
notes: as for B1
OD450 [1]: 1.84 OD450
binding result (human CD22 domain5-7-His): no binding (tested: 100 nM)
OD450 [2]: 0.18 OD450
OD450 [3]: 0.25 OD450
binding result [4]: no binding (tested: 100 nM)

B7: F1.60.9 (antibody, human IgG1, kappa, V domains shown)
VH: QVQLKESGPGLVAPSQSLSITCTVSGLSLNNYGVSWVRQPPGKGLEWLGVIWGDGSTNYHSALISRLSISKDNSKSQVFLKLNSLHTDDTATYYCAINWGDYWGQGTTLIVSS
VL: DIKMTQSPSSMNASLGERVTITCKASQDINSYLSWFQQKPGKSPKILIYRANRLIDGVPSRFSGSGSGQDYSLTISSLEYEDMGIYYCLQYGVFPLTFGAGTKLELKR
notes: as for B3
OD450 [1]: 2.55 OD450
EC50 (read off the curve) (human CD22 domain5-7-His): ~100 pM
OD450 [2]: 0.09 OD450
OD450 [3]: 0.13 OD450
binding result [4]: no binding (tested: 100 nM)
